# Measured values reported in the nanobody polyreactivity screen of Harvey et al. (2022).
# Test: yeast display, Sf9 membrane polyspecificity reagent, FACS + sequencing; frameworks hold sequencing errors
# Outline: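 Polyreactivity labels are assigned by the sorting gate from which each nanobody was recovered. The gates were low and high (top ~1%), set on anti-HA fluorescence for expression and streptavidin fluorescence for reagent binding. Before sorting, galactose-induced (36–48 hours) yeast display cells were stained for 1 hour at 4 °C with 10% biotinylated, detergent-solubilized Sf9 membrane reagent.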
row,Sequence,polyreactivity (PSR sort gate)
1,QVQLVESVGGLDQAGGSLRLSCAASGSTFRYYVMGWYRQAPGKERELVAGITRGGSTNYADSVKGRFTISRENAKNTVYLQMNSLKPEDTAVYYCASRGGWKRPFGYQLQYDYWGQGTQLTVSS,high polyreactivity
2,QVQLVESVGGLDQAGGSLRLSGAASGIIFEGNALGWYRQAPGKERELVAAITSRGTRTYYADSVKGRFTISRDHAKNTVYLQMNSLKPEDTAVYYCAKLTSVTGKSGRYGYEYWGQGTQVTVSS,high polyreactivity
3,QVQLVESVGGLVQAGASLRLSCAPSGSTFPVYAMGWYRPAPGKESELVARISSGSSTNYADSVKGRFTISRDNAKITVYLQMNSLKPEDTAVYYCAAQTPRFVWQKGPLDSEDYWGQGTQVTVSS,high polyreactivity
4,QVQLVESVGGLVQAGGILRLSCAPSGSTSYGNAMGWYRQAPAKVRELVAAISSSGSSTYYADSVKGRFTISRDNAKNTVYLQMNSLKPEDTAVYYCNKRRSHSYYSRRFDYWGQGTQVTVSS,high polyreactivity
5,QVQLVESVGGLVQAGGSHRLSCAASGRTFYQYTMGWSRQAPGTERELVAAITTSTGNTYYADSVKVRFTISRDNAKNTVYLQMNRLKPADTAVYECAADTVWPLDYWGLGTQVTVSS,low polyreactivity
6,QVQLVESVGGLVQAGGSIRLSCAASGRIIDVNAMGWYRQAPGKERELVAAIRSGGRTNYADSVKGRFTISRDNAKNTVYLQMNSLKPEDTAVYYCGAVVWSSLDDYWGQGTQVTVSS,high polyreactivity
7,QVQLVESVGGLVQAGGSLPLSCAASGLTFPSYAMGWYRQAPGKERELVAAISASGSSTYYADSVKGRFTISRDNAKNTVYLQMNSLKPEDTAVYYCNARKPATVSRYGYWGQGTQVTVSS,high polyreactivity
8,QVQLVESVGGLVQAGGSLRISCAASGRIFSGNAMGWYRQAPGKERELVASISRSGGRTRYADSVKGRFTISRDNAKNTVYLQMNSLKPEDTAVYYFTALSTQSYYFTYAGYDYWGQGTQVTVSS,high polyreactivity
9,QVQLVESVGGLVQAGGSLRISCAASGSIFAVYAMGWYRQAPGKESELVAAITSSGGRTYYADSVKGRFTISRDNAKNTVYFQMNSLKPEDTAVYYSATRGDTRWGLDYWGQATQVTVSS,high polyreactivity
10,QVQLVESVGGLVQAGGSLRISSAASGRIFTGNGMGWYRQAPGKERELVASITYNGGRTYYADSVKGRFTISRDNAKNTVYLQINSLKPEDTSVYYCNAGDYGFRYEYWGQGTQVTVSS,low polyreactivity
11,QVQLVESVGGLVQAGGSLRLICAASGFTFRRNAIGWYRQAPGKERELVAAITRSGGITYYADSVKGRFTISRDNAKNTVYLQMNSLKPEDTAVYYCNKQVTGAERFQGHGAYYWGQGTQVTVSS,high polyreactivity
12,QVQLVESVGGLVQAGGSLRLICAASGSTFTWYAIGWNRQAPGKERELVADITWRDGSTYYADSVKGRFTISRDNAKNTVYLQMNSLKPEDTAVYYCAADYTYWGIFFGYWGQGTQVTVSS,high polyreactivity
13,QVQLVESVGGLVQAGGSLRLICDASGFTFYAYAIGWYRQAPGKERELVAAITYIGSTYYADSVKGRFTISRDNAKNTVYLQMNSLKPEETAVYYCAVEFLPSFNRYDYWGQGTQVTVSS,low polyreactivity
14,QVQLVESVGGLVQAGGSLRLRCGASGSIFYIYAMGWYRHAPGNERELVAAITRRAATYADSVKGRFTISRDNAKKTGYLQMNSLKPEDTAVYYCNADVQRLGRYDYWGQGTQVTVSS,high polyreactivity
15,QVQLVESVGGLVQAGGSLRLSCAASARIFRYYAMGWDRQAPGKERELVAAITWNGGSTYYADSVKGRFTISRDNAKNTVYVQLNSLKPEDTAVYYCAAVSYYTHYRLPYDYWGQGTQVTVSS,high polyreactivity
16,QVQLVESVGGLVQAGGSLRLSCAASGFIFRGYALGWYRQARGKEWELVAAMNAGDSTNYADSVKGRFTISRDTAKNTVYLQMNSLKPEETAVYYCAASIYAALNGGPGYDYWGQGTQVTVSS,low polyreactivity
17,QVQLVESVGGLVQAGGSLRLSCAASGFIFSVYAMGWNRQAPGKERELVAVISTSGGRTYYADSVKGRFTISRDNAKNTVYLQMNSLKPEDTAVDYCAADGFQYTLGNYYWGQGTQVTLSS,high polyreactivity
18,QVQLVESVGGLVQAGGSLRLSCAASGFIFTLYTMGWYRHAPGKERELVADIDKNGSTYYADSVKGRFTISRDNAKITVYLRMYSLKPEDTAFYYCAADDRYRGNREDYWGQGTQVTVSS,low polyreactivity
19,QVQLVESVGGLVQAGGSLRLSCAASGFTFGPYAMGWYRQSPGKERELVAPIDDSGGNTYYADSVKGRFTISRDNAKNTVYLQMNSLKQEDTAVYYCNAFGADYYHVYPAEDYWGQGNQVTVSS,low polyreactivity
20,QVQLVESVGGLVQAGGSLRLSCAASGFTFPWNVMGRYRQAPGKERELVAAITYDGGGTYADSVKGRFTISRDNAKNTVYLQMNSLKPEDTAVYYCNADLINGEEYDYWGQGTQVTVSS,low polyreactivity
21,QVQLVESVGGLVQAGGSLRLSCAASGFTFTRYAMGWYRQAPGKERELVAAISSGGDTYYADSVKGRFTISRDNAKNTVYLQMNSLKPEDTAVYYCAADQSSLDYGNDYWGQGTQVTVSS,low polyreactivity
22,QVQLVESVGGLVQAGGSLRLSCAASGGIFNTYAMGWYRQAPGKEREFVAANSRRGGGTYYADSVKGRFTISRDNAKNTVYLQMNSLKPEDTAVYYCNADVKRGSRGYGSDHWGQGTQVTVSS,high polyreactivity

row,Sequence,polyreactivity (PSR sort gate)
1,QVQLVESVGGLVQAGGSLRLSCAASGGIFYKYAMGWYRQAPGNERELVAAITGRGGSTNYADSVKGRFTISRDNSKNTVYLQMNSLKPEDNAVYYCAADLRLYSSQDNDYWGQGTQVTVSS,low polyreactivity
2,QVQLVESVGGLVQAGGSLRLSCAASGIIFARYAMGWYRQAPGKERELVASISWSTGNTYYADSVKGRFTISRDNAKNTVYLQMNSLKPEDTAVYYCAATYRRKYWTMDYWGQGTQVTVSS,high polyreactivity
3,QVQLVESVGGLVQAGGSLRLSCAASGITFFGNAMGWYRQAPGKERELVASISNGDNTNYADSVKGRFTISRDNAKNTVYLQMNSLKPEDTAVYYCAAWLAYSSRYGYWGQGTQVSVSS,low polyreactivity
4,QVQLVESVGGLVQAGGSLRLSCAASGITLYGYAMGWYRQAPGKERELVAAISWRGGRTYYADSVKGRFTISRDNAKNTVYVQMNSLKPEDTAVYYCLARSYYNWYDYWGQGTQVTVSS,high polyreactivity
5,QVQLVESVGGLVQAGGSLRLSCAASGLIFPWYAMGWYRQAPGKERELVAAIRWRGGGTYYADSVKGRFTISRDNAKNTVYLQMNSLKPEDTAVYYCAARRPAKGMGYWGQGTQVTVSS,high polyreactivity
6,QVQLVESVGGLVQAGGSLRLSCAASGNIFSSYAMGWYRQAPGKERELVARITTSAGRTYDADSVKGRFTISRDNAKNTVDLQMNSLKPEDTPVYYCAVDWYGSYGYGGSQNSDYWGQGTQVTVSS,high polyreactivity
7,QVQLVESVGGLVQAGGSLRLSCAASGNTFRRNVMGLYRQAPGKERELVAAINRGGSTYYADSVKGRFTISRDNAKNTVYLQMNSLKPEDTAVYYCNAVTRGYYHEMEYWGQGTQVTVSS,high polyreactivity
8,QVQLVESVGGLVQAGGSLRLSCAASGRIFDSYTMGWYRQAPGKERELVAAISRGGGSTYYADSVKGRFTISRDNAKYTVYLQMNSLKPEDTAVYYCAASSYLNSRFKFDYWGQGTQVTVSS,low polyreactivity
9,QVQLVESVGGLVQAGGSLRLSCAASGRIFGFSTMGWYRQARGKDRELVATISWSGSGTYYADSVKGRFTISRDNAYNTVYLQMNRLKPEDTAVYYCNADWYYFGYDYWGQGTQVTVST,low polyreactivity
10,QVQLVESVGGLVQAGGSLRLSCAASGRIFGRYAMGWYRQAPGKESELVAAISTNGGRTYYADSVKGRFTISRDNAKNTVYLQRKSLKPEDNADYYCARAYRGPGYVIRYDYWGQGTQVTVSS,high polyreactivity
11,QVQLVESVGGLVQAGGSLRLSCAASGRIFKWYAMGWYRQAPGKERELVAAITSGGGSTYYADSVKGRFTISRDNAKNTVYLQINSLKPEDTAVYYCNAKAPAEIRSYLRTSRYDYWGQGTQVTVSS,high polyreactivity
12,QVQLVESVGGLVQAGGSLRLSCAASGRIFPTYAMGSSRQAPGKERELVAAISRSGGRTYYADSVKGRFTSSRDNAKNTVYLQMNSLKPEDTAVYYCNAEGDPYVDFPSRSTGYDYWGQGTQVTVSS,high polyreactivity
13,QVQLVESVGGLVQAGGSLRLSCAASGRIFRFYAMGWYRQAPGKERELVAAISSSGVRTYYADSVKGRFTISRDNAKKTVYLQINSLTPEDTAVYYCAASRHFARHRGYYFRYDYWGQGTQVTVSS,high polyreactivity
14,QVQLVESVGGLVQAGGSLRLSCAASGRIFRYYAMGWSSQAPGKESELVAAITSDGRTYYADSVKGRFTISRDNAKNTVYLQMNSQKPEDTAVYYCAADHHSYRYGGYYYWGQGTQVTVAS,low polyreactivity
15,QVQLVESVGGLVQAGGSLRLSCAASGRTFDGNAMGWYRQAPGKERELVAAIRFNGSTTYYADSVKGRFTISRDNSKNTVYLQMNSLKPEDTAVYYCNKFEGALGGMDYWGQGTQVTVSS,low polyreactivity
16,QVQLVESVGGLVQAGGSLRLSCAASGRTFGGNAMGWYRQAPGKERELVAVITGSGARTYYADSVKGRFTISRDNAKNTVYLQMNSLKPEDTAVYYCAAAGYSGQYRSYYWGQGTQVTVSS,high polyreactivity
17,QVQLVESVGGLVQAGGSLRLSCAASGRTFGRKALVWYTQAPGKERELVAAISTSGSRTYYADSVKGRFTISRDNAKNTVYLQLNSLTPEDTAVYYCYAYGVSRGSYGTRGYWGQGTQVTVSS,high polyreactivity
18,QVQLVESVGGLVQAGGSLRLSCAASGRTFGRYAMGWDRQAPGKERELVAAISWSGATTYYADSVKGRFTISRDNAKNTVYLQMNSLKPEDTAVYYCAARFRRGITYEYWGQGTQVTVSS,high polyreactivity
19,QVQLVESVGGLVQAGGSLRLSCAASGRTFGRYAMGWYRQAPGKERELVAGISRSGDSTHYADSVKGRFTISRDNAKNTVYLQMNSLKPEDTAVYYCNKETPTNGARKYEYWGQGTQVTVSS,low polyreactivity
20,QVQLVESVGGLVQAGGSLRLSCAASGRTFLRNAMGWYRQAPGKERELVASITSRGGRTYADSVKGRFTISRDNAKNTVYLQMNSLKPEDTAVYYCAARRQAGLRYDYWGQGTQVTVSS,high polyreactivity
21,QVQLVESVGGLVQAGGSLRLSCAASGRTFMYNAMGWYRQAPGKERELVAAISWSGGSTYYADSVKGRFTISRDNAKNTVYFLMNSLKPEDTAVYYCAATGRRSGFYFWGQGTQVTVSS,high polyreactivity
